Assays:
[1] = biological target: human EF-2 mutant (G717R) (human) (UniProt P13639); assay: cell-based or functional assay
[2] = biological target: human elongation factor 2 (EF-2) (human) (UniProt P13639); assay: cell-based or functional assay

DT-A(176) (from UniProt P00587 26-210) (enzyme)
GFP-positive cells relative to control vector pNL-GFP-RRE-SA, DT-resistant EF-2 mutant cell line 5H7 [1]: 70 to 80%

DT-A(E148D) (from UniProt P00587 26-210) (enzyme)
GFP-positive cells relative to control vector pNL-GFP-RRE-SA, DT-resistant EF-2 mutant cell line 5H7 [1]: 70 to 80%

DT-A(E148S) (from UniProt P00587 26-210) (enzyme)
GFP-positive cells relative to control vector pNL-GFP-RRE-SA, DT-resistant EF-2 mutant cell line 5H7 [1]: 70 to 80%

DT-AΔN (from UniProt P00587 39-210) (enzyme)
GFP-positive cells relative to control vector pNL-GFP-RRE-SA, DT-resistant EF-2 mutant cell line 5H7 [1]: 70 to 80%

wild type diphtheria toxin A chain (DT-A) (from UniProt P00587 26-210) (enzyme)
GFP-positive cells after cotransfection with pNL-DT-GFP-RRE-SA plus pCMVΔR8.2, parental HEK293T cells (FIG. 4A) [2]: 0%
GFP-positive cells, HEK293T cells (FIG. 4B; control pNL-DT(R)-GFP-RRE-SA gave 43%) [2]: 0%
GFP-positive cells after cotransfection with pNL-DT-GFP-RRE-SA plus pCMVΔR8.2, EF-2 mutant clone 4H10 (FIG. 4A) [1]: 14%
GFP-positive cells after cotransfection with pNL-DT-GFP-RRE-SA plus pCMVΔR8.2, EF-2 mutant clone 5E12 (FIG. 4A) [1]: 9%
GFP-positive cells after cotransfection with pNL-DT-GFP-RRE-SA plus pCMVΔR8.2, EF-2 mutant clone 5H7 (FIG. 4A) [1]: 46%
GFP-positive cells after cotransfection with pNL-DT-GFP-RRE-SA plus pCMVΔR8.2, EF-2 mutant clone AB1 (FIG. 4A) [1]: 24%
GFP-positive cells after cotransfection with pNL-DT-GFP-RRE-SA plus pCMVΔR8.2, EF-2 mutant clone CB2 (FIG. 4A) [1]: 28%
GFP-positive cells, 5H7 cells (FIG. 4B; control pNL-DT(R)-GFP-RRE-SA gave 64%) [1]: 54%
share of 5H7 cells surviving the toxin [1]: > 80%

— patent US20110104789A1
